Reference: article PMC5458251

Target: SEPT9_i1-YN (split-YFP chimera: septin 9 isoform 1 with EE tag, linker and N-terminal YFP fragment on its C-terminus) (human) (UniProt Q9UHD8)
Assay: split reporter (BiFC, NanoBiT); split YFP (YN/YC) in live PC-3 cells, transient co-transfection with 10-fold more HIF-1α plasmid than SEPT9_i1 plasmid, confocal imaging 48 h after transfection; cells treated overnight with 250 μM CoCl2, 100 μM DBM, DBM with 1 μM 17-AAG or 150 μM FCF, or 0.01% DMSO

Chain of UniProt Q9UHD8 (Q9UHD8 whole entry, change not shown, the tested form may be a part, canonical isoform): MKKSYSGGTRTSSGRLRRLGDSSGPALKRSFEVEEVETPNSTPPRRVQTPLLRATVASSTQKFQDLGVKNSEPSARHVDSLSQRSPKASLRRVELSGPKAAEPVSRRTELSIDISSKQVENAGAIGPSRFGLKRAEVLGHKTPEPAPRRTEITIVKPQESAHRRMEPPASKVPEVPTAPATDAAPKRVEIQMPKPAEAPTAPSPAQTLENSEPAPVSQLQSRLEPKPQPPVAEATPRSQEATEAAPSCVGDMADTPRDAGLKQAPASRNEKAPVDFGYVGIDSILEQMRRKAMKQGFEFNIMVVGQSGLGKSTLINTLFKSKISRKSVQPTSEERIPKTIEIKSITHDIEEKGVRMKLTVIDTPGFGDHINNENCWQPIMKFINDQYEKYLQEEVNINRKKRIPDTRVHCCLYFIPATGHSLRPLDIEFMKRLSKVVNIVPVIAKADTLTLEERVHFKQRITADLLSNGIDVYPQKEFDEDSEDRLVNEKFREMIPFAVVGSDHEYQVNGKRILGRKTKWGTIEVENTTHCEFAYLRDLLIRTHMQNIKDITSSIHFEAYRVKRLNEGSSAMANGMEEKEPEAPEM

- fold BiFC signal against YC-ΔHLH-HIF-1α with SEPT9 i1-YN: 11 fold
Substance: YC-HIF-1α-DPM (YC chimera of double proline mutated HIF-1α) (from UniProt Q16665 1-826) (natural protein)
